What was measured:
[1] = system: 2000-bp window downstream of a T7 promoter on pTarget in HEK293T cells; assay: Mutation rates in the 2000-bp window of the pTarget plasmid by high-throughput sequencing; type: cell-based, human; details: cytidine deaminase only
Procedure: (§1) HEK293T cells were obtained from ATCC and were grown in high-glucose (4.5 g/L) DMEM supplemented with GlutaMAX™, 1 mM sodium pyruvate, 10% FBS, 100 units/mL of penicillin and 100 μg/mL of streptomycin in a humidified chamber with 5% CO2 at 37° C. Cells were maintained at ˜80% confluence in 24-well plates on the day of transfection. 250 ng of pTarget and 250 ng of pEditor plasmids were mixed together with 1 μl of TransIT-X2 reagent (Mirus) and the mixture was incubated in 50 μl of Opti-MEM® (Thermo Fisher Scientific™) for 30 min. The mixture was then added drop-wise to each well. […]
To sequence the targeted region (˜2000 bp) on pTarget, plasmids were extracted from ˜1 million cells using Qiaprep Spin Miniprep Kit. PCR was performed using those plasmids as templates (primer sequences are shown in Table 2 above. Ampure® XP beads (Beckman Coulter™) were added to samples at a 0.8:1 ratio to size select for the pcr'ed fragments. The concentration of each sample was measured by Qubit™ (Thermo Fisher Scientific™). 1 ng of DNA at a volume of 2.5 μl from each sample was used as input for the subsequent library preparation. Sequencing library was prepared following the Nextera® XT Kit protocol (Illumina®) except that half the amount of each reagent was used. To sequence the targeted loci, genomic DNA was extracted from ˜1 million cells using the Quick-DNA™ Kit (Zymo Research™). […]

[2] = system: EGFP gene solely under the control of a T7 promoter (pTarget) in HEK293T cells; assay: EGFP expression from pTarget driven by pEditor variants (T7 RNAP transcriptional activity); type: cell-based, human; details: HEK293T cells co-transfected with pTarget and pEditor variant; listed as pAPOEBC
Procedure: Each pEditor variant was introduced into HEK293T cells together with pTarget in which EGFP gene was solely under the control of a T7 promoter. […] Scale bar, 200 μm, which also applies to other micrographs. […] Cells transfected with pTarget and pEditor plasmids were incubated for 3 days before being harvested. pTarget plasmids were extracted and PCR reactions were performed to amplify the target region. Sequencing libraries were prepared using the PCR products and next-generation sequencing was performed. Mutation rates in each group, across different pEditor variants, were calculated.
as §1
To test whether fusing a cytidine deaminase to T7 RNAP maintained T7 RNAP activity, pTarget and various pEditor plasmids were transfected into HEK 293T cells and EGFP fluorescence under each condition was measured.

B1: pAPOBEC: control plasmid expressing deaminase alone (rat APOBEC1) (protein, UniProt P38483 1-229, looked up)
C->U-editing enzyme APOBEC-1: MSSETGPVAVDPTLRRRIEPHEFEVFFDPRELRKETCLLYEINWGGRHSIWRHTSQNTNKHVEVNFIEKFTTERYFCPNTRCSITWFLSWSPCGECSRAITEFLSRYPHVTLFIYIARLYHHADPRNRQGLRDLISSGVTIQIMTEQESGYCWRNFVNYSPSNEAHWPRYPHLWVRLYVLELYCIILGLPPCLNILRRKQPQLTFFTIALQSCHYQRLPPHILWATGLK
- C->T and G->A mutation rates compared with background (pT7) error rates [1]: not statistically different from the background error rates
- EGFP expression / EGFP signals [2]: not

— patent publication US20220170006A1, “A PSEUDO-RANDOM DNA EDITOR FOR EFFICIENT AND CONTINUOUS NUCLEOTIDE DIVERSIFICATION IN HUMAN CELLS” (THE BROAD INSTITUTE, INC., priority 2019, published 2022)
